Non-standard residues stand in square brackets, D forms with d. No end group written: not given here.

As usually defined, the IC50 is the concentration that gives 50% inhibition. Lower therefore signals greater potency in that assay.

The target in assay [1] is T1, human gpr-54 receptor (human, UniProt Q969F8 1-398).
T1 construct: whole, on cells; CHO cells stably expressing the human gpr-54 receptor came from Prof; G. Vassart; also called kisspeptin receptor; AXOR12
As to the kind of experiment: whole-cell competition binding against 125I-kisspeptin, CHO cells stably transfected with GPR54 (CPM) [208].
Procedure: (§1) Cell monolayers were placed on ice and exposed to 0.5 mls peptide (10 pM-1 uM); the cells were then incubated at 4° C. for 4 hr. After 4 hrs, cells were washed twice with ice cold Dulbecco's phosphate buffered saline (DPBS; with Calcium and Magnesium) and then 0.5 mls 0.1M Sodium Hydroxide (NaOH) were added to cells for 20 minutes, shaking to lyse cells. Lysates were transferred to plastic tubes and bound radioactivity counted on the gamma counter for 60 seconds.

Assay [2] concerns the target T1, human gpr-54 receptor. The assay can be described thus: cell-based or functional assay.
In assay [3] the target is T1, human gpr-54 receptor. The assay can be described thus: cell-based or functional assay. The source holds these as a separate data set.
Assay [4] addresses T1, human gpr-54 receptor. As to the kind of experiment: whole-cell competition binding against 125I-kisspeptin, CHO cells stably transfected with GPR54 (CPM); the fall of the curve lies between Total and -10 LogM [228].
Procedure: as §1
The target of assay [5] is T1, human gpr-54 receptor. As to the kind of experiment: cell-based or functional assay. This is another data set of the same source.
Assay [6] has as its target T1, human gpr-54 receptor. The assay can be described thus: whole-cell competition binding against 125I-kisspeptin, CHO cells stably transfected with GPR54 (CPM); upper curve, no lower plateau reached at -5 LogM [212].
Procedure: as §1
Assay [7] has as its target T1, human gpr-54 receptor. As to the kind of experiment: cell-based or functional assay. This is another data set of the same source.
Assay [8] has as its target T1, human gpr-54 receptor. As to the kind of experiment: whole-cell competition binding against 125I-kisspeptin, CHO cells stably transfected with GPR54 (CPM) [210].
Procedure: as §1
The target of assay [9] is T1, human gpr-54 receptor. The assay can be described thus: cell-based or functional assay. The source holds these as a separate data set.
Assay [10] deals with T1, human gpr-54 receptor. The assay can be described thus: whole-cell competition binding against 125I-kisspeptin, CHO cells stably transfected with human GPR54 (CPM); no lower plateau reached at -5 LogM [211].
Procedure: as §1
In assay [11] the target is T1, human gpr-54 receptor. The assay can be described thus: whole-cell competition binding against 125I-kisspeptin, CHO cells stably transfected with GPR54 (CPM); the curve falls between Total and -9 LogM [209].
Procedure: as §1
Assay [12] concerns the target T1, human gpr-54 receptor. As to the kind of experiment: cell-based or functional assay. This is another data set of the same source.
The target in assay [13] is T1, human gpr-54 receptor. The assay can be described thus: whole-cell competition binding against 125I-kisspeptin, CHO cells stably transfected with GPR54 (CPM); the fall of the curve lies between Total and -10 LogM [201].
Procedure: as §1
Assay [14] deals with T1, human gpr-54 receptor. As to the kind of experiment: whole-cell competition binding against 125I-kisspeptin, CHO cells stably transfected with GPR54 (CPM); the fall of the curve lies between Total and -11 LogM [206].
Procedure: as §1
The target of assay [15] is T1, human gpr-54 receptor. As to the kind of experiment: cell-based or functional assay. This is another data set of the same source.
Assay [16] addresses T1, human gpr-54 receptor. The assay can be described thus: whole-cell competition binding against 125I-kisspeptin, CHO cells stably transfected with GPR54 (CPM); the fall of the curve lies between Total and -11 LogM [203].
Procedure: as §1
Assay [17] deals with T1, human gpr-54 receptor. As to the kind of experiment: cell-based or functional assay. This is another data set of the same source.
Assay [18] deals with T1, human gpr-54 receptor. The assay can be described thus: whole-cell competition binding against 125I-kisspeptin, CHO cells stably transfected with GPR54 (CPM); the drawn curve falls between Total and -10 LogM, which does not fit the printed number [207].
Assay [19] deals with T1, human gpr-54 receptor. As to the kind of experiment: whole-cell competition binding against 125I-kisspeptin, CHO cells stably transfected with GPR54 (CPM); the fall of the curve lies between Total and -11 LogM [202].
Procedure: as §1
In assay [20] the target is T1, human gpr-54 receptor. The assay can be described thus: whole-cell competition binding against 125I-kisspeptin, CHO cells stably transfected with hGPR54 (CPM); no lower plateau reached at -5 LogM [186].
Procedure: as §1
The target in assay [21] is T1, human gpr-54 receptor. As to the kind of experiment: cell-based or functional assay. This is another data set of the same source.

T1 sequence (Q969F8 whole entry): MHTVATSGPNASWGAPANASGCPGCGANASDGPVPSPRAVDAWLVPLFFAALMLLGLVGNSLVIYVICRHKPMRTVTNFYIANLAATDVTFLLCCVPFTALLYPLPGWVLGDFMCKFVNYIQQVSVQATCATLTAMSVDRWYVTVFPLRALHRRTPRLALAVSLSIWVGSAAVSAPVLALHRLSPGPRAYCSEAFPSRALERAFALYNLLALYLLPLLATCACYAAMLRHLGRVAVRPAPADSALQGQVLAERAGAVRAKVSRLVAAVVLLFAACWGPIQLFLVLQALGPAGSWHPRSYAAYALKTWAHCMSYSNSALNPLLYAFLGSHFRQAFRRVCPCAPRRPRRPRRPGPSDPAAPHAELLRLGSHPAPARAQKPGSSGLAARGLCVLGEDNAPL

B1: 208 (peptide)
peptide: YNWNGFGLRF-NH2
notes: kisspeptin-10 analogue
Take B1: the IC50 with human gpr-54 receptor [1] was determined as 70.3 nM. In the assay with human gpr-54 receptor [2], the “IP stimulation (IC50), peptide alone” value is 45.6 nM; the “Inhibition of IP stimulation by 10nM Agonist: % Inhibition of Max” value (“Inhibition … % Inhibition of Max” below) was determined as 55%; the “Inhibition of IP stimulation by 10nM Agonist: IC50” value (“Inhibition of IP stimulation … IC50” below) amounted to 1000 nM. Also, the “Antagonistic assay with kisspeptin-10: IC50 [208]” value with human gpr-54 receptor [3] came out at 1000 nM.

B2: 228 (peptide)
peptide: Ac-YNWNGFG[dW]RF-NH2
SMILES: CC(=O)N[C@@H](Cc1ccc(O)cc1)C(=O)N[C@@H](CC(N)=O)C(=O)N[C@@H](Cc1c[nH]c2ccccc12)C(=O)N[C@@H](CC(N)=O)C(=O)NCC(=O)N[C@@H](Cc1ccccc1)C(=O)NCC(=O)N[C@H](Cc1c[nH]c2ccccc12)C(=O)N[C@@H](CCCNC(=N)N)C(=O)N[C@@H](Cc1ccccc1)C(N)=O
notes: kisspeptin-10 analogue; also called acYNWNGFG[(D)-W]RF
With B2, in the assay with human gpr-54 receptor [4], the IC50 was 0.00655 nM. The “IP competition with 10nM kisspeptin-10: IC50 [228]” value with human gpr-54 receptor [5] came out at 50 nM. In the assay with human gpr-54 receptor [2], the “Inhibition … % Inhibition of Max” value turned out to be 58% and the “Inhibition of IP stimulation … IC50” value turned out to be 50 nM.

B3: 212 (peptide)
peptide: YNWNG[dW]GLRF-NH2
modifications: N-terminus assumed
SMILES: CC(C)C[C@H](NC(=O)CNC(=O)[C@@H](Cc1c[nH]c2ccccc12)NC(=O)CNC(=O)[C@H](CC(N)=O)NC(=O)[C@H](Cc1c[nH]c2ccccc12)NC(=O)[C@H](CC(N)=O)NC(=O)[C@@H](N)Cc1ccc(O)cc1)C(=O)N[C@@H](CCCNC(=N)N)C(=O)N[C@@H](Cc1ccccc1)C(N)=O
notes: kisspeptin-10 analogue; also called YNWNG[(D)-W]GLRF
As for B3, the IC50 in the assay with human gpr-54 receptor [6] was determined as 6330 nM. Moreover, in the assay with human gpr-54 receptor [7], the “IP competition with 10nM kisspeptin-10: IC50 [212]” value was < 0.1 nM and the “IP dose response, peptide alone: EC50 (unlabelled number beside rising curve; rise only at -5 LogM) [212]” value stood at 0.000205 M. In the assay with human gpr-54 receptor [2], the “IP stimulation (IC50), peptide alone” value stood at 300000 nM; the “Inhibition … % Inhibition of Max” value is 88%; the “Inhibition of IP stimulation … IC50” value was < 0.1 nM.

B4: 210 (peptide)
peptide: YNWNGFG[dW]RF-NH2
notes: kisspeptin-10 analogue; also called compound 210
In turn, B4 returned an IC50 with human gpr-54 receptor [8] of 1300 nM. Also, the “IP competition with 10nM kisspeptin-10: IC50 [210]” value in the assay with human gpr-54 receptor [9] is < 0.1 nM. For the same molecule, in the assay with human gpr-54 receptor [2], the “Inhibition … % Inhibition of Max” value came to 64% and the “Inhibition of IP stimulation … IC50” value was < 0.1 nM.

B5: 211 (peptide)
peptide: YNWNG[dF]GLRF-NH2
modifications: N-terminus assumed
SMILES: CC(C)C[C@H](NC(=O)CNC(=O)[C@@H](Cc1ccccc1)NC(=O)CNC(=O)[C@H](CC(N)=O)NC(=O)[C@H](Cc1c[nH]c2ccccc12)NC(=O)[C@H](CC(N)=O)NC(=O)[C@@H](N)Cc1ccc(O)cc1)C(=O)N[C@@H](CCCNC(=N)N)C(=O)N[C@@H](Cc1ccccc1)C(N)=O
notes: kisspeptin-10 analogue; also called YNWNG[(D)-F]GLRF
For B5, in the assay with human gpr-54 receptor [9], the “IP competition with 10nM kisspeptin-10: IC50 [211]” value was 1000 nM. Besides, in the assay with human gpr-54 receptor [2], the “IP stimulation (IC50), peptide alone” value amounted to 2570 nM; the “Inhibition … % Inhibition of Max” value was found to be 73%; the “Inhibition of IP stimulation … IC50” value worked out at 1000 nM. In the assay with human gpr-54 receptor [10], this molecule had an IC50 of 4320 nM.

B6: 209 (peptide)
peptide: YNWNGFG[dL]RF-NH2
modifications: N-terminus assumed
SMILES: CC(C)C[C@@H](NC(=O)CNC(=O)[C@H](Cc1ccccc1)NC(=O)CNC(=O)[C@H](CC(N)=O)NC(=O)[C@H](Cc1c[nH]c2ccccc12)NC(=O)[C@H](CC(N)=O)NC(=O)[C@@H](N)Cc1ccc(O)cc1)C(=O)N[C@@H](CCCNC(=N)N)C(=O)N[C@@H](Cc1ccccc1)C(N)=O
notes: kisspeptin-10 analogue; also called Peptide 209; YNWNGFG[(D)-L]RF
B6: in the assay with human gpr-54 receptor [2], the “Inhibition … % Inhibition of Max” value was found to be 81% and the “Inhibition of IP stimulation … IC50” value stood at 100 nM. In the assay with human gpr-54 receptor [3], the “IP competition with 10nM kisspeptin-10: IC50 [209]” value is 100 nM. Also, in the assay with human gpr-54 receptor [11], the IC50 was found to be 0.0157 nM.

B7: 201 (peptide)
peptide: Ac-FGARW-NH2
notes: kisspeptin-10 analogue; also called acFGARW
Regarding B7, in the assay with human gpr-54 receptor [12], the “IP competition with 10nM kisspeptin-10: IC50 [201]” value is 7 nM. Also, in the assay with human gpr-54 receptor [13], the IC50 came to 0.00432 nM. In addition, in the assay with human gpr-54 receptor [2], the “Inhibition … % Inhibition of Max” value is 69% and the “Inhibition of IP stimulation … IC50” value came out at 7 nM.

B8: 206 (peptide)
peptide: Ac-FG[dW]RF-NH2
SMILES: CC(=O)N[C@@H](Cc1ccccc1)C(=O)NCC(=O)N[C@H](Cc1c[nH]c2ccccc12)C(=O)N[C@@H](CCCNC(=N)N)C(=O)N[C@@H](Cc1ccccc1)C(N)=O
notes: kisspeptin-10 analogue; also called acFG[(D)-W]RF
Consider B8, for which the IC50 with human gpr-54 receptor [14] came out at 0.0352 pM. The “IP competition with 10nM kisspeptin-10: IC50 [206]” value with human gpr-54 receptor [15] worked out at 10 nM. In the assay with human gpr-54 receptor [2], the “Inhibition … % Inhibition of Max” value was found to be 68% and the “Inhibition of IP stimulation … IC50” value is 10 nM.

B9: 203 (peptide)
peptide: Ac-[dF]WLRW-NH2
SMILES: CC(=O)N[C@H](Cc1ccccc1)C(=O)N[C@@H](Cc1c[nH]c2ccccc12)C(=O)N[C@@H](CC(C)C)C(=O)N[C@@H](CCCNC(=N)N)C(=O)N[C@@H](Cc1c[nH]c2ccccc12)C(N)=O
notes: kisspeptin-10 analogue; also called ac[F-(D)]WLRW
In the assay with human gpr-54 receptor [16], B9 registered an IC50 of 0.000307 nM. In the assay with human gpr-54 receptor [17], the “IP competition with 10nM kisspeptin-10: IC50 [203]” value stood at 0.1 nM and the “IP dose response, peptide alone: EC50 (unlabelled number beside rising curve; rise only at -5 LogM) [203]” value was 0.000156 M. Also, in the assay with human gpr-54 receptor [2], the “IP stimulation (IC50), peptide alone” value was 150000 nM; the “Inhibition … % Inhibition of Max” value is 71%; the “Inhibition of IP stimulation … IC50” value is 0.1 nM.

B10: 207 (peptide)
peptide: Ac-FG[dF]RF-NH2
SMILES: CC(=O)N[C@@H](Cc1ccccc1)C(=O)NCC(=O)N[C@H](Cc1ccccc1)C(=O)N[C@@H](CCCNC(=N)N)C(=O)N[C@@H](Cc1ccccc1)C(N)=O
notes: kisspeptin-10 analogue; also called acFG[(D)-F]RF
In turn, B10 came in with a 50% inhibitory concentration (IC50) with human gpr-54 receptor [18] of 110 nM. In addition, in the assay with human gpr-54 receptor [2], the “Inhibition … % Inhibition of Max” value stood at 0%.

B11: 202 (peptide)
peptide: Ac-AGLRW-NH2
notes: kisspeptin-10 analogue; also called acAGLRW
On to B11, for which, in the assay with human gpr-54 receptor [19], the IC50 was found to be 0.00032 nM. Further, in the assay with human gpr-54 receptor [17], the “IP competition with 10nM kisspeptin-10: IC50 [202]” value is 10 nM and the “IP dose response, peptide alone: EC50 (unlabelled number beside rising curve; rise only at -5 LogM) [202]” value stood at 0.00109 M. In the assay with human gpr-54 receptor [2], the “IP stimulation (IC50), peptide alone” value is > 100000 nM; the “Inhibition … % Inhibition of Max” value turned out to be 64%; the “Inhibition of IP stimulation … IC50” value stood at 10 nM.

B12: 186 (peptide)
peptide: Ac-NSFGLRF-NH2
notes: kisspeptin-10 analogue; also called Peptide 186; acNSFGLRF
In turn, B12 displayed an IC50 with human gpr-54 receptor [20] of 1850 nM. In addition, in the assay with human gpr-54 receptor [21], the “IP competition with 10nM kisspeptin-10: IC50 [186]” value worked out at 0.5 nM and the “IP dose response, peptide alone: EC50 (unlabelled number beside rising curve) [186]” value turned out to be 592 nM. Moreover, in the assay with human gpr-54 receptor [2], the “IP stimulation (IC50), peptide alone” value came out at 150 nM and the “Inhibition … % Inhibition of Max” value worked out at 70%.

Values taken from US20110046068A1 (MEDICAL RESEARCH COUNCIL, published 2011).
